Data published in the DeepSol protein solubility set.

Assay: soluble on expression in E. coli; label from the status in PepcDB or PDB records
In the case of “MNVLALDTSQRIRIGLRKGEDLFEISYTGEKKHAEILPVVVKKLLDELDLKVKDLDVVGVGIGPGGLTGLRVGIATVVGLVSPYDIPVAPLNSFEMTAKSCPADGVVLVARRARKGYHYCAVYLKDKGLNPLKEPSVVSDEELEEITKEFSPKIVLKDDLLISPAVLVEESERLFREKKTIHYYEIEPLYLQKSIAELNWEKKKRG”, the “soluble on expression in E. coli” value is reported as “not soluble”. In the case of “MLRSKKMVLVGRKAPDFTAAAVLGNGEIVDNFNFAEFTKGKKAVVFFYPLDFTFVCPSELIAFDNRYEDFLAKGVEVIGVSIDSQFSHNAWRNTAVENGGIGQVKYPLVADVKHEICKAYDVEHPEAGVAFRGSFLIDEEGMVRHQVVNDLPLGRNIDEMLRMVDALNFHQTHGEVCPAQWEAGKAGMEASPKGVAAFLSQYSADLK”, the “soluble on expression in E. coli” value is reported as “not soluble”. With “MGHHHHHHSHMRKLTALFVASTLAMGAANLAHAAETTTAAPADAKPMMQHKGKFGPHHDMMFKNLNLTDAQKQQIRDIMKAQREQMKRPLLEERRAMHDIIASDTFDKAKAEAQITKMEAQRKANMLAHMETQNKIYNVLTPEQKKQYNANFEKRLTERPAQEGKMPAAAE” the “soluble on expression in E. coli” value was “soluble”. For “MSFFHASQRDALNQSLAEVQGQINVSFQFFPPRTSEMEQTLWNSIDRLSSLKPKFVSVTYGANSGERDRTHSIIKGIKDRTGLEAAPHLTCIDATPDELRTIARDYWNNGIRHIVALRGDLPPGSGKPEMYASDLVTLLKEVADFDISVAAYPEVHPEAKSAQADLLNLKRKVDAGANRAITQFFFDVESYLRFRDRCVSAGIDVEIIPGILPVSNFKQAKKFADMTNVRIPAWMAQMFDGLDDDAETRKLVGANIAMDMVKILSREGVKDFHFYTLNRAEMSYAICHTLGVRPGLLEHHHHHH”, the “soluble on expression in E. coli” value was “soluble”. For “MGSDKIHHHHHHMFSDMTLLQYINSEDRGFFLPDMGTNGLFLINKKAYEVYDSVDLQLELAKTMDKYFESDFIYSFCDGITFCETLGLETLRPDYDFPSVLTHTITDRDKLRKLDVPDPYTSGRMPLNIESLSVISKSIKKPLYESIQGPFTLAGQLAGATQLLRCIITDKKFVEELLEFTTELVRRYAVAANKAGAKYISIAEPTSVTLSKDRFDEFIVKNLNKIYNELDCWKGMHICGDTRELLDNMLSCNIDAVSLDQILDYEEIAPMIPRDIVLIGNLDPIKLLGRSKPDKIRRETLKLLKKMRRYDNFLCDFGCNCLNTTPVENLQAAIKAGRISYKELDRIDIDEL”, the “soluble on expression in E. coli” value was “not soluble”. In the case of “MAGDPMNIQDAQPSTLREMIKQGKLTGHTSGMAKGYVQANVVILPSKCAYDFLLFCFRNPKTCPLLDVSEKGNKSFTKYGVTADISTEVAAYRIYQYGELIETRANVDDLYTDDMVSFLIGCSFTFEHALLEAGIPIRHLEENHNVPMYVTNIPANPSGQFKGNITVSMRPMTMTQAIKATEITTRFKNVHGTPIHIGNPTEIGITDLALPDFGEPVTINENEVPVFWGCGVTPQSVALDAKPDLMITHAPGHMFITDIPDSQLSDLEHHHHHH”, the “soluble on expression in E. coli” value is reported as “soluble”. With “MMKPVLHFSKLYEVKKLLRKSRLYTVCEESRCPNISECFGNKTATFMILGNRCTRRCAFCNVEKGFPKGVDPEEPYRLLEAVKTLGLKYVVITSVTRDDLPDGGASHFAKCIRVLKENIEDIKVEVLIPDFRGNKKALEVVLKEKPVVLNHNVETVPRLYPSVRIGANYKRSLNILKWSKEIDKSVYTKSALILGFGERKEEVIKVMEDLRSVDCDFLVLGQYYQPSLKHHPVVKYYSEEEFKEFEEIGYEMGFKFVVSKPNARSSYKAFESLLSTLEHHHHHH” the “soluble on expression in E. coli” value was “not soluble”. For “MGSDKIHHHHHHMRPTAIGSVCTPFVCWSCVARHGNTHVCWSCSVASVPCVTRAPVSVPGGLAAVCRTWLRRKGDLMNQGRPGVHVRVFDARVGDRVVVEPKGVGDRFMSVFVGWDAGRYLIVKMPSNLALKDHLYPDKPVVLRYLHCTGEVHGCETTIETSVAVPHRLLFLRHPESVEAVSLRKDAWVNCSVPALLRHEAGNMAGYLLDVSRGGCKVAYFEEEGLPTLAAGTEVQCSFRLPGGEQPVEVGAVVRNVAGEGGRIVCGLEFRDAPEPVVAAIGAYVDAAAFLVGTSCADRVVR”, the “soluble on expression in E. coli” value was “not soluble”. For “MYDVLDSQSVLEVLRPVQDPELRKSLVELNMIRNVKIDGGQVSFTLVLTTPACPLREFIVEDCQRAVKKLPGVTDVSVEVTAETPQQKSLPDRNGVPGVKNIIAISSGKGGVGKSTVAVNVAVALAQTGAKVGLLDADIYGPNDPTMLGLGDAQIVVRSTEKGEVLEPAFNHGVKLVSMGFLIDRDQPVIWRGPMLNGVIRQFLYQVEWGELDYLIVDMPPGTGDAQLTLTQAVPMSGAVIVTTPQNVALLDSRKGLRMFQQMNVAVLGIVENMSYFIPPDMPDKHYDIFGSGGGSKTAAELGVPLLGCIPLEISTRIGGDNGVPIVVADPDSASAKALKAIALTIAGKVSVAALTLEHHHHHH”, the “soluble on expression in E. coli” value was “soluble”. With “MSLRILGRASSINVRKVLWACAEFEIAFEREDWGSGFKATDSTEFLALNPNAMIPVIQDGDFTLWESNSIIRYLASRYGATAFYPGEAQARARIDQWIDWQASDLNRSWSYAFMSLVRHSPAHQDPQALAAGCAEWSRYMRILDRQLASTGAYVAGSQFTLADIPIGLSVNRWFETPFEHPHLPAVRDYYERLSERPAYHLHGRNGTEGHHHHHH” the “soluble on expression in E. coli” value was “soluble”. For “MLKLSKIVLISSLLVLVQQISYAKIGGFELIVNVPIGAGITLVNKNVSVAGNPKLGGNFQIGLEANIGYMFQIMDNMGVSLLGSLGYDFTGFSYSKNNNTENYKNTVHDIYRFLS”, the “soluble on expression in E. coli” value was “not soluble”. In the case of “MLSMPWSEIDTVLLDMDGTLLDLHYDEHFWMQHLPQRYAELHGISFAMAWLELKPLFENNAGTLNWYCLDFWSTELKLSVRDLKREIAHMIALRPDAETFLAAIKQAGKRVIMITNAHRDSLSLKMERIELAPYFERLISSHDYGFPKESQHFWDALKAETAFDPARSLFIDDTLPILRSARHFGVAHLLAVSQPNSQKGPKDTEEFAAVGDYRELIKGL”, the “soluble on expression in E. coli” value is reported as “not soluble”. For “MGSDKIHHHHHHMPNHDALAGGKVHLRRGVDLQVSHSPGVYPPLVFIHGGTGNRFNFRMQYEFAQAQGWEVLAYDLGGNGQSSRYSRYSIGRHCRDLARLLVRFGVESPVLCCHSYGVPIGLEFVQHHPVSAIIAIAGGTHDLAPWWEIPLMKFMAGGGRYLLHLPGVQKINKLLSTSYSHSVMERFFVENPPPTDFDAYKGLEIFWDYNFFIRHPLPKNLHIPALVITADKDPTFTANMGDELANHFDDGTHLHFAKGGHLVMAESAELVNEAIANWLIQKLTIN”, the “soluble on expression in E. coli” value was “not soluble”. For “MSVATATMPQQQNNFAQTLSQSSSTASAPAPTSAPVTTPAPGSRGAALFGGVFHRGFFSKPVERTEEENYRYLMALDR”, the “soluble on expression in E. coli” value was “not soluble”. In the case of “MQLSKALSLRRVLNSGFHPFQVIPKPDVWMKRERLNRFTAWQYASERSTVKGAYRKEDKIFAYLNMQRQDERNLEKFHAEERVRTALEEHDMEYSKFKSILSQSHILLDNICLSQLAIYEPRSFRSLVAFAKELARQEGMNVIPDDAEFSYDVHVDNKSVLRKPLPRAVEYTRGASENHTNKPRKLREDEY”, the “soluble on expression in E. coli” value is reported as “not soluble”. With “MGSDKIHHHHHHMELVQFGCEDWLNVWEKSATIDIAQSTIDSLSLEEVLAFEEDNGEAFMSQMMKEKFSYGWIEGSPAFKSEVAKLYKRVPEDNILSTNGATGANFLTILGLIGQGDHVIAQYPSYQQLYDWPKTLGAQVDYWHIKEENNWLPQIEELRRLVKSNTKLICLNNAAQPTGAIMSPKFLSEVVEIARSVDAYILCDEVYLPLDEETPYSPIADLYEKGISTNSISKTYSVPGIRVGWVATQDRDLCNEFRKIRDYTLICTGVFDDAVAALVLKHKDKVLERARKIVKGNLSILKEWVENEPLVSMVYPNAVSVSFVKFEELDPTKTEDFAIQLLREKGVLIIPGNRFDLSGYARIGYCTDETTLRQGLKLLSEFLREYQV” the “soluble on expression in E. coli” value was “not soluble”. In the case of “MAWASPDGHCTVEHSADSVHLWRFEHSVYDGFDTHWTATFTPEVPERLVAQFFTHLATTTPVERVFRDVPYLVQSLDAALITPVNRAAVNPHVHHAGAQLGRAVHRRLEHHHHHH”, the “soluble on expression in E. coli” value is reported as “not soluble”. In the case of “MSQIEKKQLQLGYIPLLDCIALLWAKERGYFEEMGLDVTLVKEASWASLRDRLAFGILDAAHCLSAMLPAAAIGEDQIGIPLKTPLVLSKNRAYISLSQKLCYELSIQNADNAQENSAKLVKYLEQEQSIALAHVFHHSIHHYCLREWLALSHLDLAKAIQLKTLPPPYMLDALASASIDGFCVGEPWNTQGEIEGYSQIVASSRDIIPEVADKVLAVTEEWAAHHPNTVIALTAAILKAQQELETLSNLEPVWQILINFNIVRFQCSKSVHVKSYHALEQIIRHLVVGQAAPCSEDMLWLFGQMQKWHDLTIETTALNELSQRCIDQNSFEKAMQHVQSNTGLEHHHHHH”, the “soluble on expression in E. coli” value is reported as “not soluble”. With “VPQQSATKLVQQWQPLLQRWGELAGVEIKFATARDIPTFEARLMAGEYDIAYMNPYHFTLVNQTPGYTALARAKNKRITGIIVARKGQSVTLDDLQEETIAFPAPRAFAASIITQSELEQKGIKFTPKYVGSHD” the “soluble on expression in E. coli” value was “not soluble”. In the case of “MDFQNFVATLESFKDLKSGISGSRIKKLTTYALDHIDIESKIISLIIDYSRLCPDSHKLGSLYIIDSIGRAYLDETRSNSNSSSNKPGTCAHAINTLGEVIQELLSDAIAKSNQDHKEKIRMLLDIWDRSGLFQKSYLNAIRSKCFAAALEHHHHHH”, the “soluble on expression in E. coli” value is reported as “soluble”. For “FPRVSQELKTALSTLQQTFVVSDATQPHCPIVYASSGFFTMTGYSSKEIVGRNCRFLQGPDTDKNEVAKIRDCVKNGKSYCGRLLNYKKDGTPFWNLLTVTPIKDDQGNTIKFIGMQVEVSKYTEGVNDK”, the “soluble on expression in E. coli” value was “soluble”. In the case of “MRFKVGIEFDESLELPFNYNKILQGFIYRNIMDKDLARFIHDRGFSYEKRKYKMFTFSRLQGKFSIDSKKKKIIYQSPVELVVSSCYEDFFIDLSLSLLRRDVEIAGHKAYVSKMDIIMEEPKSIQKIRMLSPVTAYSTLDDKRTVYFSPYNHDFKRIIKENLIKKYKAFYKDDSKDNVDFDIELVSDKYAKVISSYDGFIIEGWMGDFVLKGDQEVIKLAYDAGIGGKNSQGFGCFKLI”, the “soluble on expression in E. coli” value is reported as “soluble”. With “MADERRCGVCRPLGGPRQPWPAGLLHCSSRAIFASLCMPRIVFAPAIQRHVAMPALDVGAATVAAALQAAFAREPRLRGYLLDDQGSLRRHVALFVDGVQVRDRRGLGDPLQDDSEIYVVQALSGGLEHHHHHH” the “soluble on expression in E. coli” value was “not soluble”. In the case of “SKHYPEAGIQYSSSTTGDGRPLDIEFSGSCSLEKFYDNPKSNDGNSYRLQSWLYASRLLQYSDALEHLLSTGQGVVLERSIYSDFVFLEAMYNQGFIRKQCVDHYNEIKRLTLPEYLPPHAVIYIDVPVSEIQSRIQKKGDPHEMKVTSAYLQDIEDAYKKTFLPKMSEICEVLVYSSWEAEDSTKVVEDIEYLNYNKGPWLKQDDRTFHNLRMLVQDKREVLNYTTVPVYLPEITIGAHQGSRIYDSFRELPGRKYAPGYNADVGDKWIWLK”, the “soluble on expression in E. coli” value is reported as “soluble”. In the case of “SSSSQHFNLNFTITNLPYSQDIAQPSTTKYQQTKRSIENALNQLFRNSSIKSYFSDCQVLAFRSVSNNNNHTGVDSLCNFSPLARRVDRVAIYEEFLRMTHNGTQLLNFTLDRKSVFVD”, the “soluble on expression in E. coli” value is reported as “soluble”. With “SIPAGITAAYIHKGHDTTHGGGEMVLEVPHDKTIPVLRFLRDHSSCLYDCFIDCTAADFPQKPQRFRVVYNLLSLKYSSRIRVQTHVDEVTPIESATCLFKGANWPEREVWDLFGVFFYNHPDLRRILTDYGFEGHPLRKDFPLSGYVEVRYDDTEKRVVIEPVEITQEYRAFDYTSPWEVFPEGGNFEEAEKLPERV” the “soluble on expression in E. coli” value was “soluble”.
